From publication PMC3267858 (Nature, 2012)

B1: C-linker/CNBHD of zebrafish ELK channel (amino acids Q543-L750) (domain or fragment, Danio rerio (zebrafish), UniProt A8WHX9 543-750, looked up)
chain: QRMYSRRSLYHTRTKDLKDFIRVHRLPKALAQRMLECFQTTWSVNNGIDVSELLKDFPDELRADIAMHLNKELLQLPLFESASRGCLRSLSLIIKTSFCAPGEFLIRQGDALQAIYFVCSGSMEVLKDNTVLAILGKGDLIGSDSLTKEQVIKTNANVKALTYCDLQYISLKGLREVLRLYPEYAQKFVSEIQHDLTYNLREGSGADL
B2: GFP-tagged C-linker/CNBHD of zELK channels (amino acids Q543-L750) (domain or fragment, Danio rerio (zebrafish), UniProt A8WHX9 543-750, looked up)
chain: B1 chain

What was measured:
crystal structure = biological target: the molecule itself; assay: crystal structure
SEC = biological target: the molecule itself; assay: SEC

Protein | stoichiometry N (crystal structure) | stoichiometry N (SEC)
B1 | 2 | 
B2 |  | 2
